{"source": "the Immune Epitope Database (IEDB)", "key": {"HLA-A*01:01 [1]": {"target": "HLA-A*01:01", "assay": "IEDB peptide-MHC binding, purified MHC/direct/fluorescence; filed as Kd, often an IC50 or EC50 that approximates it; ≥ and ≤ were set here for values at or beyond the usual limits of such assays", "conditions": "source organism: Homo sapiens"}, "HLA-A*11:01": {"target": "HLA-A*11:01", "assay": "IEDB peptide-MHC binding, purified MHC/direct/fluorescence; filed as Kd, often an IC50 or EC50 that approximates it; ≥ and ≤ were set here for values at or beyond the usual limits of such assays", "conditions": "source organism: Homo sapiens"}, "HLA-B*15:01 [2]": {"target": "HLA-B*15:01", "assay": "IEDB peptide-MHC binding, purified MHC/direct/fluorescence; filed as Kd, often an IC50 or EC50 that approximates it; ≥ and ≤ were set here for values at or beyond the usual limits of such assays", "conditions": "source organism: Homo sapiens"}, "HLA-A*01:01 [3]": {"target": "HLA-A*01:01", "assay": "IEDB peptide-MHC binding, purified MHC/competitive/radioactivity; ≥ and ≤ were set here for values at or beyond the usual limits of such assays", "conditions": "source organism: Homo sapiens"}, "HLA-C*03:03": {"target": "HLA-C*03:03", "assay": "IEDB peptide-MHC binding, purified MHC/direct/fluorescence; filed as Kd, often an IC50 or EC50 that approximates it; ≥ and ≤ were set here for values at or beyond the usual limits of such assays", "conditions": "source organism: Escherichia coli HS"}, "HLA-C*07:02": {"target": "HLA-C*07:02", "assay": "IEDB peptide-MHC binding, purified MHC/direct/fluorescence; filed as Kd, often an IC50 or EC50 that approximates it; ≥ and ≤ were set here for values at or beyond the usual limits of such assays", "conditions": "source organism: Escherichia coli HS"}, "HLA-C*12:03": {"target": "HLA-C*12:03", "assay": "IEDB peptide-MHC binding, purified MHC/direct/fluorescence; filed as Kd, often an IC50 or EC50 that approximates it; ≥ and ≤ were set here for values at or beyond the usual limits of such assays", "conditions": "source organism: Escherichia coli HS"}, "HLA-C*06:02": {"target": "HLA-C*06:02", "assay": "IEDB peptide-MHC binding, purified MHC/direct/fluorescence; filed as Kd, often an IC50 or EC50 that approximates it; ≥ and ≤ were set here for values at or beyond the usual limits of such assays", "conditions": "source organism: Escherichia coli HS"}, "HLA-B*83:01": {"target": "HLA-B*83:01", "assay": "IEDB peptide-MHC binding, purified MHC/competitive/fluorescence; filed as Kd, often an IC50 or EC50 that approximates it; ≥ and ≤ were set here for values at or beyond the usual limits of such assays"}, "HLA-C*14:02": {"target": "HLA-C*14:02", "assay": "IEDB peptide-MHC binding, purified MHC/competitive/fluorescence; filed as Kd, often an IC50 or EC50 that approximates it; ≥ and ≤ were set here for values at or beyond the usual limits of such assays", "conditions": "source organism: Escherichia coli HS"}, "HLA-B*48:01": {"target": "HLA-B*48:01", "assay": "IEDB peptide-MHC binding, purified MHC/competitive/fluorescence; filed as Kd, often an IC50 or EC50 that approximates it; ≥ and ≤ were set here for values at or beyond the usual limits of such assays", "conditions": "source organism: Escherichia coli HS"}, "HLA-C*04:01": {"target": "HLA-C*04:01", "assay": "IEDB peptide-MHC binding, purified MHC/competitive/fluorescence; filed as Kd, often an IC50 or EC50 that approximates it; ≥ and ≤ were set here for values at or beyond the usual limits of such assays", "conditions": "source organism: Escherichia coli HS"}, "HLA-B*45:06": {"target": "HLA-B*45:06", "assay": "IEDB peptide-MHC binding, purified MHC/competitive/fluorescence; filed as Kd, often an IC50 or EC50 that approximates it; ≥ and ≤ were set here for values at or beyond the usual limits of such assays"}, "HLA-B*40:13": {"target": "HLA-B*40:13", "assay": "IEDB peptide-MHC binding, purified MHC/competitive/fluorescence; filed as Kd, often an IC50 or EC50 that approximates it; ≥ and ≤ were set here for values at or beyond the usual limits of such assays", "conditions": "source organism: Escherichia coli HS"}, "HLA-A*32:07": {"target": "HLA-A*32:07", "assay": "IEDB peptide-MHC binding, purified MHC/competitive/fluorescence; filed as Kd, often an IC50 or EC50 that approximates it; ≥ and ≤ were set here for values at or beyond the usual limits of such assays", "conditions": "source organism: Escherichia coli HS"}, "HLA-A*32:15": {"target": "HLA-A*32:15", "assay": "IEDB peptide-MHC binding, purified MHC/competitive/fluorescence; filed as Kd, often an IC50 or EC50 that approximates it; ≥ and ≤ were set here for values at or beyond the usual limits of such assays", "conditions": "source organism: Escherichia coli HS"}, "HLA-B*15:42": {"target": "HLA-B*15:42", "assay": "IEDB peptide-MHC binding, purified MHC/competitive/fluorescence; filed as Kd, often an IC50 or EC50 that approximates it; ≥ and ≤ were set here for values at or beyond the usual limits of such assays"}, "HLA-B*27:20": {"target": "HLA-B*27:20", "assay": "IEDB peptide-MHC binding, purified MHC/competitive/fluorescence; filed as Kd, often an IC50 or EC50 that approximates it; ≥ and ≤ were set here for values at or beyond the usual limits of such assays", "conditions": "source organism: Escherichia coli HS"}, "HLA-A*31:01": {"target": "HLA-A*31:01", "assay": "IEDB peptide-MHC binding, purified MHC/competitive/fluorescence; filed as Kd, often an IC50 or EC50 that approximates it; ≥ and ≤ were set here for values at or beyond the usual limits of such assays", "conditions": "source organism: Shigella flexneri 5 str. 8401"}, "HLA-A*68:23": {"target": "HLA-A*68:23", "assay": "IEDB peptide-MHC binding, purified MHC/competitive/fluorescence; filed as Kd, often an IC50 or EC50 that approximates it; ≥ and ≤ were set here for values at or beyond the usual limits of such assays", "conditions": "source organism: Shigella flexneri 5 str. 8401"}, "HLA-A*03:01": {"target": "HLA-A*03:01", "assay": "IEDB peptide-MHC binding, purified MHC/competitive/fluorescence; filed as Kd, often an IC50 or EC50 that approximates it; ≥ and ≤ were set here for values at or beyond the usual limits of such assays"}, "HLA-A*01:01 [4]": {"target": "HLA-A*01:01", "assay": "IEDB peptide-MHC binding, purified MHC/competitive/fluorescence; filed as Kd, often an IC50 or EC50 that approximates it; ≥ and ≤ were set here for values at or beyond the usual limits of such assays", "conditions": "source organism: Corynebacterium glutamicum ATCC 13032"}, "HLA-B*15:01 [5]": {"target": "HLA-B*15:01", "assay": "IEDB peptide-MHC binding, purified MHC/competitive/fluorescence; filed as Kd, often an IC50 or EC50 that approximates it; ≥ and ≤ were set here for values at or beyond the usual limits of such assays", "conditions": "source organism: Corynebacterium glutamicum ATCC 13032"}, "HLA-A*02:01": {"target": "HLA-A*02:01", "assay": "IEDB peptide-MHC binding, purified MHC/competitive/fluorescence; filed as Kd, often an IC50 or EC50 that approximates it; ≥ and ≤ were set here for values at or beyond the usual limits of such assays", "conditions": "source organism: Corynebacterium glutamicum ATCC 13032"}, "HLA-B*27:05": {"target": "HLA-B*27:05", "assay": "IEDB peptide-MHC binding, purified MHC/competitive/fluorescence; filed as Kd, often an IC50 or EC50 that approximates it; ≥ and ≤ were set here for values at or beyond the usual limits of such assays", "conditions": "source organism: Corynebacterium glutamicum ATCC 13032"}, "HLA-A*24:02": {"target": "HLA-A*24:02", "assay": "IEDB peptide-MHC binding, purified MHC/competitive/fluorescence; filed as Kd, often an IC50 or EC50 that approximates it; ≥ and ≤ were set here for values at or beyond the usual limits of such assays", "conditions": "source organism: Corynebacterium glutamicum ATCC 13032"}, "HLA-B*58:01": {"target": "HLA-B*58:01", "assay": "IEDB peptide-MHC binding, purified MHC/competitive/fluorescence; filed as Kd, often an IC50 or EC50 that approximates it; ≥ and ≤ were set here for values at or beyond the usual limits of such assays", "conditions": "source organism: Corynebacterium glutamicum ATCC 13032"}, "HLA-B*40:01": {"target": "HLA-B*40:01", "assay": "IEDB peptide-MHC binding, purified MHC/competitive/fluorescence; filed as Kd, often an IC50 or EC50 that approximates it; ≥ and ≤ were set here for values at or beyond the usual limits of such assays", "conditions": "source organism: Corynebacterium glutamicum ATCC 13032"}, "HLA-B*07:02": {"target": "HLA-B*07:02", "assay": "IEDB peptide-MHC binding, purified MHC/competitive/fluorescence; filed as Kd, often an IC50 or EC50 that approximates it; ≥ and ≤ were set here for values at or beyond the usual limits of such assays", "conditions": "source organism: Corynebacterium glutamicum ATCC 13032"}, "[6]": {"conditions": "source organism: Escherichia coli HS"}, "[7]": {"conditions": "source organism: Shigella flexneri 5 str. 8401"}}, "data": [{"sequence": "IVDCLTEMY", "values": [{"measurement": "Kd", "setting": "HLA-A*01:01 [1]", "result": 164, "unit": "nM"}, {"measurement": "Kd", "setting": "HLA-A*11:01", "result": 2020, "unit": "nM"}, {"measurement": "Kd", "setting": "HLA-B*15:01 [2]", "result": 1090, "unit": "nM"}, {"measurement": "IC50", "setting": "HLA-A*01:01 [3]", "result": 7, "unit": "nM"}]}, {"sequence": "MMWATAQAL", "values": [{"measurement": "Kd", "setting": "HLA-C*03:03", "result": 337, "unit": "nM"}, {"measurement": "Kd", "setting": "HLA-C*07:02", "result": 572, "unit": "nM"}, {"measurement": "Kd", "setting": "HLA-C*12:03", "result": 1640, "unit": "nM"}, {"measurement": "Kd", "setting": "HLA-C*06:02", "result": "≥ 20000", "unit": "nM"}, {"measurement": "Kd", "setting": "HLA-B*83:01; [6]", "result": "≥ 5000", "unit": "nM"}, {"measurement": "Kd", "setting": "HLA-C*14:02", "result": 6.4, "unit": "nM"}, {"measurement": "Kd", "setting": "HLA-B*48:01", "result": 242, "unit": "nM"}, {"measurement": "Kd", "setting": "HLA-C*04:01", "result": "≥ 5000", "unit": "nM"}, {"measurement": "Kd", "setting": "HLA-B*45:06; [6]", "result": "≥ 5000", "unit": "nM"}, {"measurement": "Kd", "setting": "HLA-B*40:13", "result": 212, "unit": "nM"}, {"measurement": "Kd", "setting": "HLA-A*32:07", "result": 42, "unit": "nM"}, {"measurement": "Kd", "setting": "HLA-A*32:15", "result": 391, "unit": "nM"}, {"measurement": "Kd", "setting": "HLA-B*15:42; [6]", "result": "≥ 5000", "unit": "nM"}, {"measurement": "Kd", "setting": "HLA-B*27:20", "result": 6.4, "unit": "nM"}]}, {"sequence": "TTIPTNLFR", "values": [{"measurement": "Kd", "setting": "HLA-B*83:01; [7]", "result": "≥ 5000", "unit": "nM"}, {"measurement": "Kd", "setting": "HLA-A*31:01", "result": 121, "unit": "nM"}, {"measurement": "Kd", "setting": "HLA-A*68:23", "result": 332, "unit": "nM"}, {"measurement": "Kd", "setting": "HLA-A*03:01; [7]", "result": 3000, "unit": "nM"}, {"measurement": "Kd", "setting": "HLA-B*45:06; [7]", "result": "≥ 5000", "unit": "nM"}, {"measurement": "Kd", "setting": "HLA-B*15:42; [7]", "result": "≥ 5000", "unit": "nM"}]}, {"sequence": "MSSAAHLLY", "values": [{"measurement": "Kd", "setting": "HLA-A*01:01 [4]", "result": 14.1, "unit": "nM"}, {"measurement": "Kd", "setting": "HLA-B*15:01 [5]", "result": 46.5, "unit": "nM"}, {"measurement": "Kd", "setting": "HLA-A*02:01", "result": "≥ 20000", "unit": "nM"}, {"measurement": "Kd", "setting": "HLA-A*03:01; source organism: Corynebacterium glutamicum ATCC 13032", "result": 161, "unit": "nM"}, {"measurement": "Kd", "setting": "HLA-B*27:05", "result": "≥ 20000", "unit": "nM"}, {"measurement": "Kd", "setting": "HLA-A*24:02", "result": "≥ 20000", "unit": "nM"}, {"measurement": "Kd", "setting": "HLA-B*58:01", "result": 6.1, "unit": "nM"}, {"measurement": "Kd", "setting": "HLA-B*40:01", "result": "≥ 20000", "unit": "nM"}, {"measurement": "Kd", "setting": "HLA-B*07:02", "result": "≥ 20000", "unit": "nM"}]}]}
